From the supplement of paper PMC10567573

B1: VENTX (parent)
chain: VFQHHQYLSPLERKRLAREMQLSE

Variants of: B1
Assay: protein stability index of a GFP-peptide fusion (GPS, HEK-293T) (PSI 1-6); higher = more stable
Conditions: c terminus: a fixed tail appended
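Further: lentivirally expressed fusions sorted by FACS into six bins by GFP to DsRed ratio, PSI derived from sequencing read proportions per bin multiplied by bin number.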

Protein stability index of substitutions, site by site:
S9: F 1.99 | V 2.08 | I 1.69 | Q 3.25 | R 2.64 | G 2.38 | N 2.59 | T 2.21 | C 2.17 | A 2 | K 2.39 | E 2.86 | P 2.88 | L 2.22 | D 2.73 | H 2.38 | W 1.52 | M 2.33 | Y 2.21
R13: E 2.44 | N 3.31 | H 2.07 | C 2.45 | F 1.92 | S 2.44 | Q 2.94 | G 1.83 | M 2.43 | T 2.32 | Y 1.77 | K 2.62 | A 2.32 | L 2.66 | I 2.26 | P 2.06 | W 1.87 | D 2.56 | V 2.4
R15: H 2.54 | E 2.41 | L 2.02 | S 1.97 | N 2.85 | P 2.36 | Y 2.04 | D 2.6 | I 2.09 | K 2.44 | Q 2.57 | C 1.99 | A 1.79 | F 1.72 | V 1.92 | M 2.02 | G 2.6 | T 2.97 | W 2.21
L16: V 2.75 | Q 2.7 | S 2.8 | Y 2.31 | H 2.82 | K 2.52 | N 2.92 | M 2.48 | I 2.71 | R 2.33 | W 2.01 | P 2.78 | G 2.9 | C 2.62 | E 3.1 | F 2.28 | T 2.71 | D 3.03 | A 2
A17: E 2.93 | G 2.69 | H 2.24 | D 2.45 | C 1.84 | I 2.36 | F 2.5
K14: H 1.97 | T 2.58 | R 2.67 | V 2.63 | I 2.88 | W 1.81 | E 3.3 | D 3.01 | Y 2.58 | Q 2.12 | G 2.39 | A 2.67 | F 1.75 | C 2.98 | P 2.4 | M 3.11 | S 2.81 | L 2.19 | N 2.83
P10: E 2.91 | I 2.42 | C 2.32 | W 1.96 | H 2.73 | T 1.86 | A 2.62 | D 2.31 | Q 2.46 | V 2.63 | G 2.23 | S 2.89 | N 2.82 | L 2.67 | F 1.91 | K 2.52 | M 2.23 | Y 2.54
L11: P 2.1 | N 3.2 | D 2.97 | Q 2.73 | G 1.95 | T 2.93 | H 2.77 | F 2.42 | W 2.84 | Y 2.66 | A 3 | C 2.4 | K 3.03 | R 2.31 | S 2.64 | V 2.53 | E 3.41 | I 2.4 | M 2.65
E12: N 2.56 | G 2.07 | F 2.58 | L 2.13 | T 2.08 | Y 2.19 | C 1.98 | V 2.74 | A 1.96 | H 2.21 | Q 2.33 | K 1.82 | W 1.8 | I 2.66 | P 2.99 | R 2.45 | M 2.74 | S 2.74 | D 2.39
L8: S 2.09 | P 2.52 | Y 2.32 | V 2.41 | W 1.83 | R 2.25 | T 2.4 | N 2.72 | Q 2.89
